Source: patent publication US20130096058A1

Biological target: Murine CD40L on the Th2 cell line D10.G4.1 (mouse) (UniProt P27548)
Assay: cell-based or functional assay

Murine CD40L on the Th2 cell line D10.G4.1 (mouse), sequence (P27548 whole entry): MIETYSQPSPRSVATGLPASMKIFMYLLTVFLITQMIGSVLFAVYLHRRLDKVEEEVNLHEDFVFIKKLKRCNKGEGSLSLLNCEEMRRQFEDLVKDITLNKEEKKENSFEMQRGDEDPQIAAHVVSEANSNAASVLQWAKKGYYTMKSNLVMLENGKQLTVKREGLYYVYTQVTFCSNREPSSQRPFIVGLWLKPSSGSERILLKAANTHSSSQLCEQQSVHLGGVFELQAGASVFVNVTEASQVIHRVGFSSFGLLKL

- IC50 of inhibition of MuCD40L-induced CD86 expression on B cells: 100 µM
Substance: MR1 antibody
